The results in this text go back to patent US20140134179A1 (Novartis, published 2014).

The target of experiment [1] is T1, flag-tagged human TEM8 on 293 cells (293/Flag-hTEM8) (human, UniProt Q9H6X2 33-564).
T1 construct: also called 293/Flag-huTEM8; 293/hFlag-TEM8
The experiment can be described thus: flow cytometry titration on 293/Flag-hTEM8 cells, FITC anti-mouse secondary (FIG. 9B).

Experiment [2] deals with T2, mouse TEM8 on 293 cells (293/mTEM8) (mouse, UniProt Q9CZ52 31-562).
T2 construct: whole, on cells
The experiment can be described thus: flow cytometry on 293/mTEM8 cells (FIG. 8C).

In experiment [3] the target is T3, hTEM8(ED)-Fc fusion protein (human; mouse, UniProt Q9H6X2 33-321).
T3 construct: also called TEM8-Fc; human TEM8-Fc
T3 sequence: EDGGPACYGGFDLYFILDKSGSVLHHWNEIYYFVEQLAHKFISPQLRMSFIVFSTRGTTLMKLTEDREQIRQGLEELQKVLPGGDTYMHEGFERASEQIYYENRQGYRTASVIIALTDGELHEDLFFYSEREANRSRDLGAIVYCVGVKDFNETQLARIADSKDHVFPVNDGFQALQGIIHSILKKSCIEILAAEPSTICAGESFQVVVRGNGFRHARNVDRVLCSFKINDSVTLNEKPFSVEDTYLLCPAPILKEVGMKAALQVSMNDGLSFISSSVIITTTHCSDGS
The experiment can be described thus: ELISA on biotinylated human TEM8-Fc captured on neutravidin.

Experiment [4] addresses T1, flag-tagged human TEM8 on 293 cells …. The experiment can be described thus: immunofluorescence and flow cytometry on 293/Flag-hTEM8 cells.

B1: L5-mIgG2a (antibody, V domains shown)
VH: QVQLVESGGGLVQPGGSLRLSCAASGFTFNSYGLSWVRQAPGKGLEWVSNISSNGSYTYYADSVKGRFTISRDNSKNTLYLQMNSLRAEDTAVYYCARAGYGLFDVWGQGTLVTVSS
VL: DIELTQPPSVSVAPGQTARISCSGDKLREYYVHWYQQKPGQAPVLVIYGDNKRPSGIPERFSGSNSGNTATLTISGTQAEDEADYYCSSWAGSRSGTVFGGGTKLTVL
notes: also called L5 full IgG
As to B1, the half-maximal effective concentration (EC50) in experiment [1] amounted to 2.8 nM.

B2: L1 Fab (Fab, V domains shown)
VH: QVQLVESGGGLVQPGGSLRLSCAASGFTFNSYAMSWVRQAPGKGLEWVSLISSGSSTYYADSVKGRFTISRDNSKNTLYLQMNSLRAEDTAVYYCARAGFKFDNWGQGTLVTVSS
VL: DIELTQPPSVSVAPGQTARISCSGDSIPNYSVSWYQQKPGQAPVLVIYADSNRPSGIPERFSGSNSGNTATLTISGTQAEDEADYYCQSYDNTSPDLVFGGGTKLTVLG
For B2, the binding result in experiment [2], in experiment [3] and in experiment [4] was “binds” throughout.
